The values that follow come from patent US20240343823A1 (Ablynx, published 2024).

Test [1] addresses T1, human GPC3 on tumor cell lines (HepG2, Huh-7, NCI-H661, MKN-45, NCI-H23, BxPC-3, NCI-H292) (human, UniProt P51654 25-554).
T1 construct: Endogenous GPC3 of human cancer cell lines; also called GPC3 on HepG2; GPC3 on Huh-7
Kind of test: pHAb internalization assay on Huh-7 cells, flow cytometry (BD FACSArray, yellow laser); indirect readout that needs binding and uptake; concentration not given. As for the experimental part: The assay was read on a BD FACSArray with a yellow laser (pHAb: excitation maximum at 532 nm, emission maximum at 560 nm). The internalization rate was determined by quantifying the internalization at 37° C. at different timepoints (0.5 h, 3 h, 24 h and 48 h) compared to 4° C. at 0.5 h (Table 10, FIG. 8A).
For orientation: A flow cytometer gives signals particle by particle.

The target in test [2] is T2, TCRab on primary cyno T cells (cynomolgus).
T2 construct: whole, on cells; also called Primary cy T cells; cyno TCR
The test can be described thus: competition flow cytometry on cyno T cells, competitor T017000623 at EC30 (5E-08 M). As for the experimental part:
(§1) T cells (human T cells obtained as described in Example 3 and cyno T cells purchased from LPT laboratory, Germany) were thawed and counted on the day of the assay and diluted to a concentration of 1E+06 cells/mL, before adding 75 μL to the wells of a V-bottom 96-well plate (Greiner, cat no 651180). Cells were washed once with cold FACS buffer, before adding 25 μL Nb and 25 μL competitor to the wells. […] Cells were resuspended and plates were incubated at 4° C. for 90 minutes, after which plates were washed twice in cold FACS buffer. Cells were resuspended in 50 μl 1/1000 diluted Monoclonal ANTI-FLAG® M2 (Sigma Aldrich, cat no F1804) in FACS buffer and incubated at 4° C. for 30 minutes. Plates were washed twice in cold FACS buffer. […] Plates were washed twice in cold FACS buffer. Cells were resuspended in 55 μL 1/1000 diluted Propidium Iodide (Sigma-Aldrich, cat no P4170) in FACS buffer before acquiring data on the MACSQuant X (Miltenyi biotec).

The target in test [3] is T3, TCRab on primary human T cells (human, UniProt P01848 1-140; P01850 1-176).
T3 construct: whole, on cells; T cells isolated from buffy coats; also called Primary hu T cells; human TCR
T3 TCR alpha (looked up): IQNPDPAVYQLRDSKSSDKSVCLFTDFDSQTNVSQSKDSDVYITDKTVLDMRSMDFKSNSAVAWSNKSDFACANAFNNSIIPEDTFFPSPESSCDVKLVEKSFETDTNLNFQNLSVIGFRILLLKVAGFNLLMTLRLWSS
T3 TCR beta (looked up): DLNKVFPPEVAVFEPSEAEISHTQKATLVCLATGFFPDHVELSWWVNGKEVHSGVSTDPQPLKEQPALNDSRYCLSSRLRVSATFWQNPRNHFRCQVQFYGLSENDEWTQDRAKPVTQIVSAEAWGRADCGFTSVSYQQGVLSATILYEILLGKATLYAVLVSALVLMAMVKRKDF
Kind of test: competition flow cytometry on primary human T cells, competitor T017000624 at EC30 (2E-08 M). As for the experimental part:
as §1

Test [4] deals with T4, cyno TCRab, in house produced (extracellular domains fused to a zipper peptide) (cynomolgus).
T4 construct: Numbering of the four differences is not explained; not shown: variable domains, if any; any residues beyond C131 of the beta chain
T4 alpha: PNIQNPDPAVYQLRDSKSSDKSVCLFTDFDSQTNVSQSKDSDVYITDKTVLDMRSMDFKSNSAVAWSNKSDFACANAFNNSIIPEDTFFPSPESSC
T4 beta: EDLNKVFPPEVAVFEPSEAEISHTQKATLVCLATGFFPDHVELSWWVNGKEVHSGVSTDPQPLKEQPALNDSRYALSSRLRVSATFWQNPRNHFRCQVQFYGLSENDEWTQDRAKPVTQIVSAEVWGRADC
Kind of test: SPR ProteOn XPR36, TCRab immobilized by amine coupling, 1:1 model. As for the experimental part:
Recombinant TCR proteins were immobilized on a GLC Sensor Chip (Biorad) via amine coupling, using EDC and NHS chemistry (running buffer: HBS-EP+, pH 7.4). Purified ISVDs were injected for 2 minutes (flow rate 45 μL/min) at different concentrations (between 0.2 nM and 200 nM) and dissociation was followed for 900 s. Regeneration was performed by injecting 3 M MgCl₂ for 3 minutes (flow rate 90 μL/min). Data was double referenced by subtracting a reference ligand lane and a blank buffer injection. Processed sensorgrams were analyzed based on the 1:1 interaction model (Langmuir binding model) using ProteOn Manager 3.1.0 (Version 3.1.0.6) software.

B1: A022600373 (bispecific antibody)
chain: DVQLVESGGGVVQPGGSLRLSCVASGYVHKINFYGWYRQAPGKEREKVAHISIGDQTDYADSAKGRFTISRDESKNTVYLQMNSLRPEDTAAYYCRALSRIWPYDYWGQGTLVTVSSGGGGSGGGGSGGGGSGGGGSEVQLVESGGGVVQPGGSLRLSCAASGFTFRSFGMSWVRQAPGKGPEWVSSISGSGSDTLYADSVKGRFTISRDNSKNTLYLQMNSLRPEDTALYYCTIGGSLSRSSQGTLVTVSSGGC
modifications: pHAb dye on the C-terminal GGC (degree of labeling 1)
notes: also called TCE01-20GS-ALB23002-GGC
Regarding B1, the binding result in test [1] is reported as “no binding”.

B2: T017000698 (bispecific antibody)
chain: DVQLVESGGGVVQPGGSLRLSCVASGYVHKINFYGWYRQAPGKEREKVAHISIGDQTDYADSAKGRFTISRDESKNTVYLQMNSLRPEDTAAYYCRALSRIWPYDYWGQGTLVTVSSGGGGSGGGSEVQLVESGGGVVQPGGSLRLSCAASGFTFRSFGMSWVRQAPGKGPEWVSSISGSGSDTLYADSVKGRFTISRDNSKNTLYLQMNSLRPEDTALYYCTIGGSLSRSSQGTLVTVSSA
notes: Bivalent ISVD construct: anti-TCR and anti-albumin; also called TCE01-9GS-ALB23002-A
With B2, the IC50 turned out to be 250 nM in test [2] and 190 nM in test [3]. This molecule also registered a Kd in test [4] of 11 nM.

As usually defined, the IC50 is the midpoint of a concentration-inhibition curve. A higher IC50 goes with lower potency. As usually defined, the Kd is a measure of binding affinity in units of concentration. A low value points to tighter binding.
